Assay results from paper PMC9504981.

Target: 10×Histidine-tagged amino acids 1-416 of potato virus X RNA-dependent RNA polymerase, 10×His-MET_(1-416) (potato virus X)
Experiment: cross-linking

Question: For “10×Histidine-tagged amino acids 1-416 of potato virus X RNA-dependent RNA polymerase, 10×His-MET_(1-416) (domain or fragment)”, which stoichiometry N is on record?
Answer: > 5
